Test: soluble on expression in E. coli; label from the status in PepcDB or PDB records
In the case of “EVKLVESGGGLVKPGGSLKLSCAASGFTFNNYVMVWLRQTPEKRLEWVASISRGGSTYYPDSVKGRFTISRDNARNILYLQMSSLRSEDTAMYYCVRGTTIVAGDVWGAGTTVTVSSAKTTPPSVYPLAPGSAAQTNSMVTLGCLVKGYFPEPVTVTWNSGSLSSGVHTFPAVLQSDLYTLSSSVTVPSSTWPSETVTCNVAHPASSTKVDKKIVPRDC”, the “soluble on expression in E. coli” value is reported as “soluble”.
In the case of “MEEIKPASASCVSKEKPSKVSDLISRFEGGSSLSNYSDLKKESAVNLNAPRTPGRHGLTTTPQQKLLSQHLPQRQGNDADKTQGAQTCVANGVMAAQNQMECEEEKAATLSSDTSIQASEPLLDTHIVNGERDETATAPASPTTDSCDGNASDSSYRTPGIGPVLPLEERGAETETKVQERENGESPLELEQLDQHHEMKETNEQKLHKIANELLLTERAYVNRLDLLDQVFYCKLLEEANRGSFPAEMVNKIFSNISSINAFHSKFLLPELEKRMQEWETTPRIGDILQKLAPFLKMYGEYVKGFDNAMELVKNMTERIPQFKSVVEEIQKQKICGSLTLQHHMLEPVQRIPRYEMLLKDYLRKLPPDSLDWNDAKKSLEIISTAASHSNSAIRKMENLKKLLEIYEMLGEEEDIVNPSNELIKEGQILKLAARNTSAQERYLFLFNNMLLYCVPKFSLVGSKFTVRTRVGIDGMKIVETQNEEYPHTFQVSGKERTLELQASSAQDKEEWIKALQETIDAFHQRHETFRNAIAKDNDIHSEVSTAELGKRAPRWIRDNEVTMCMKCKEPFNALTRRRHHCRACGYVVCWKCSDYKAQLEYDGGKLSKVCKDCYQIISGFTDSEEKKRKGILEIESAEVSGNSVVCSFLQYMEKSKPWQKAWCVIPKQDPLVLYMYGAPQDVRAQATIPLLGYVVDEMPRSADLPHSFKLTQSKSVHSFAADSEELKQKWLKVILLAVTGETPGGPNEHPATLDDHPEPKKKSEC”, the “soluble on expression in E. coli” value is reported as “soluble”.
For “MLLPWLFPQTKRNNFAAKVNSENQEKLLILRKEDASASSGQSELSLVQMGLKQVVASSFWLVFEFQHFKVGCNAARKFPVNGIANAQPQQCGTYRSHNGKLSIAIGHFCRIHQRAHTHFAIAKIAEFNPAVHCHHVVWHLFWRTHLGAIQLCV”, the “soluble on expression in E. coli” value was “not soluble”.
For “MGSDKIHHHHHHMYCGVPEEDPDKLVALILSGGQSSRMGTDKGSMELNGERLVERAGNLCASAGLPFYYSINASQNQQYLNFLPADALIVDTLDDIKGPLAGLLSFYVKYPNTDVLLLPCDMIHLGKSILSDLVQAYETMSIGHDIIVYQYANEIIEPMPGIYTSEALRKIYWLFLSGDLTRFSLKYCIEISNSFFIPIKKEAEVLFKNINSPEDITPSK”, the “soluble on expression in E. coli” value was “not soluble”.
In the case of “MGSDKIHHHHHHMSPKVFVSHASEDKDRFVLQFAERLRQKGIDAWLDKWEMLPGDSLVDKIFEEGIKEAKAVIVVLSKFSVEKPWVREELNAAFVKRINNGSKLIPIVIDDCEVPEALKSTLWEPIADLSAYDKSFDRIVASIYGANDRPPIGPQPEYVQSFVQAIGNLNNIDSLVLRFSCEEVLKTGNAFVNPERVFLKDDKPILPEDELKDSLEILDGGGYIKLMRTLGGGFFPYQITTYGFDVYANASIPDYQGKIAAVVSAIVNEKLMSNAKIQERLKENKIIVDHILNVLENKGHIKQSKMIGGLSEIFNVSPSLKRALSGG”, the “soluble on expression in E. coli” value is reported as “not soluble”.
With “MSEKRVQPLARDAMAYVLAGGRGSRLKELTDRRAKPAVYFGGKARIIDFALSNALNSGIRRIGVATQYKAHSLIRHLQRGWDFFRPERNESFDILPASQRVSETQWYEGTADAVYQNIDIIEPYAPEYMVILAGDHIYKMDYEYMLQQHVDSGADVTIGCLEVPRMEATGFGVMHVNEKDEIIDFIEKPADPPGIPGNEGFALASMGIYVFHTKFLMEAVRRDAADPTSSRDFGKDIIPYIVEHGKAVAHRFADSCVRSDFEHEPYWRDVGTIDAYWQANIDLTDVVPDLDIYDKSWPIWTYAEITPPAKFVHDDEDRRGSAVSSVVSGDCIISGAALNRSLLFTGVRANSYSRLENAVVLPSVKIGRHAQLSNVVIDHGVVIPEGLIVGEDPELDAKRFRRTESGICLITQSMIDKLDL” the “soluble on expression in E. coli” value was “soluble”.
In the case of “MASKVYDPEQRKRMITGPQWWARCKQMNVLDSFINYYDSEKHAENAVIFLHGNATSSYLWRHVVPHIEPVARCIIPDLIGMGKSGKSGNGSYRLLDHYKYLTAWFELLNLPKKIIFVGHDWGAALAFHYAYEHQDRIKAIVHMESVVDVIESWDEWPDIEEDIALIKSEEGEKMVLENNFFVETVLPSKIMRKLEPEEFAAYLEPFKEKGEVRRPTLSWPREIPLVKGGKPDVVQIVRNYNAYLRASDDLPKLFIESDPGFFSNAIVEGAKKFPNTEFVKVKGLHFLQEDAPDEMGKYIKSFVERVLKNEQVDHHHHHH”, the “soluble on expression in E. coli” value is reported as “soluble”.
For “MNTTDRQITFSALSCLLSYPDEEWRAELPDWKALIQEIGNRQIREKLLHFFETSASYSPEALIEHYVYTFDFGKKTNMYVTYFNSGEQRERGIELLHLKNTYEQSGFLPTEKELPDYLPLMLEFAAAAEIEAARSVFEKYLSNVRELASRLEKNDSIYAELLHVLLAALENIGVRESVEGAVQALEHHHHHH”, the “soluble on expression in E. coli” value was “not soluble”.
For “AEVRPPFTYASLIRQAILESPEKQLTLNEIYNWFTRMFPYFRRNAATWKNAVRHNLSLHKYFVRVENVKGAVWTVDEVEFQKRRPQK”, the “soluble on expression in E. coli” value was “soluble”.
With “MTKKLIKIWRKEMLALMNEDADWYRNEDTERFKRIQELARKIETANTRQFSSHISKERFEAYQKMGLQFKEIAEEFHITTTALQQWRKDNGYPIYNKNNRK” the “soluble on expression in E. coli” value was “not soluble”.
In the case of “MNILYTVENSIYVNITNTCPCSCVFCIRNEKDEVANSGSLWLEHEPSVDEVKEAFNKYNLDDYDEIVFCGYGEPLMRINELIDVAKFIKEKSSIKIRINTNGLSDLIHNKKTAILLKDVIDAVSISLNAPNKEAYNRVTQPKFGEKSFDYMLDFAKDCKKYIKEVAFSVVDEISPEEIEESKQLAKKLDIPLRVRHKN”, the “soluble on expression in E. coli” value is reported as “not soluble”.
For “GPGSMNRDPDNGLWYATLRGRTLLGEEVQLPESGIVGMTTVTTSKPSCSPFPTPASLSTFPPQIAEVGELEMVDEVFIEACAPRYVVWDHGRAPSPAASLLQWMMLAEVLHGPSKWAQGEGDTSL”, the “soluble on expression in E. coli” value was “not soluble”.
For “MIKKGYHVAVVGATGAVGQKIIELLENEMKFNVVEVTLLSSKRSAGKKVRFKGREIIIQEAKTTSFEGVDIAFFSAGGEVSRQFVTHAVSSGAIVIDNTSEYRMAQGVPLVVPEVNAHTLKQHKGIIAVPNCSALQMVTALQPIRKSFGLERIIVSTYQAVSGSGIHAIHELREQAKSILAGEEVKSDILPVKKDKKHYPIAFNVLPQVDIFTDNDFTFEEVKMIQETKKILEDENLKMAATCVRVPVVSGHSESVYIELEKEASVAEIKGILMDAPGVILQDNPSEQLYPMPLYAEGKIDTFVGRIRKDPDTPNGFHLWIVSDNLLKGAAWNSVQIAETLVEKGIL”, the “soluble on expression in E. coli” value was “not soluble”.
In the case of “GDLLVVTLENITEAKQGEISLNAALHAAEKQERLYNSITNNTPDLVYVFGLDYSFTYANKALLTMWGKTAEEAIGKGLRENGYEEWHAQMHEREIDEIKATKKSIRGTVSFPHAELGSRMYDYILVPVLNESGEVEAIAGTTRD”, the “soluble on expression in E. coli” value is reported as “not soluble”.
In the case of “MGSDKIHHHHHHMPLLDIRNLTIELDTPEGTVKVLEKVSLTINPGEIHGLVGESGSGRSLLAKAILGVLGPNWHIIADRMMWDGKNLLEMSSKQRRCLMGSEMAMIFQDPSGSLDPVKTIGSQLIEAMVPNKNIPFWRRGKATYLNAQKWLHKVGIKKPKQLMKCYPWELSEGECQKVMIAMAVANHPKLLIADEPTNSMELNTQAQIFRLLSQLNQLQNVSILLVSHELETMVHWCDNLTILYSGQVMESGPVSEMVAMPYHPYTRALLKNLPDHTEKMRHKANLPTLQGSSPSLQHLPAGCRLGPRCPEAQRQCVKQPNLEHIKDRYFACHFPYQSEQEDDDAIA”, the “soluble on expression in E. coli” value is reported as “not soluble”.
For “MSLTPQQVFVKCHFDYNPYNDNLIPCKEAGLKFSKGEILQIVNREDPNWWQASHVKEGGSAGLIPSQFLEEKRKAFVRRDWDNSGPFCGTISSKKKKKMMYLTTRNAEFDRHEIQIYEEVAKMPPFQRKTLVLIGAQGVGRRSLKNRFIVLNPTRFGTTVPFTSRKPREDEKDGQAYKFVSRSEMEADIKAGKYLEHGEYEGNLYGTKIDSILEVVQTGRTCILDVNPQALKVLRTSEFMPYVVFIAAPELETLRAMHKAVVDAGITTKLLTDSDLKKTVDESARIQRAYNHYFDLIIINDNLDKAFEKLQTAIEKLRMEPQWVPISWVYEGHHHHHH”, the “soluble on expression in E. coli” value was “soluble”.
For “MSLAKLDETLTMLKDLTDAKGIPGNEREVRQVMKSYIEPFADEVTTDRLGSLIAKKTGAENGPKIMIAGHLDEVGFMVTQITDKGFIRFQTVGGWWAQVMLAQRVTIVTKKGEITGVIGSKPPHILSPEARKKSVEIKDMFIDIGASSREEALEWGVLPGDMIVPHFEFTVMNNEKFLLAKAWDNRIGCAIAIDVLRNLQNTDHPNIVYGVGTVQEEVGLRGAKTAAHTIQPDIAFGVDVGIAGDTPGISEKEAQSKMGKGPQIIVYDASMVSHKGLRDAVVATAEEAGIPYQFDAIAGGGTDSGAIHLTANGVPALSITIATRYIHTHAAMLHRDDYENAVKLITEVIKKLDRKTVDEITYQEGGSHHHHHH”, the “soluble on expression in E. coli” value was “soluble”.
With “MHLLRTQPGGFVPDDGIAHLAQTPAELVILCSGDSHLALLAEAARALPDDYPSLRLANPMQLQNHASVDLYVEEVLRHARVILLSLHGGIGYWRYGVEQLVALAERGALLIPVPGDDRPDPELSALGNLPAEQAERFWQYLRQGGLENAGQFYRCLASQCLGRDYAWREPQALPRVALFHPRHAEATLEHWRADWQAGRPVVALLFYRTHLQAANTAFIARFCERLAAQGLNPLPIALASLKESACLAQVEDWLERSDAALIVNTTGFAQSNPEAPELRPFRRDVPVLQAICSLDNRPLWLDNPQGLGPRDLAMHVALPELDGRIVTRPISFKGLAWRSERSESDVVCYLADDERMDFVAELARRWAELARKPNAEKRVALVLANYPTRDGRIGNGVGLDTPAAALNILRALRQQGYPVDGLPASGTELIRQLLGGVSNDLEHLDLRPCAQSLALDDYLACFARLPERNRQAVLARWGEPQQDPMFRDGRMMVAGLRYGLTFVGIQPARGYQLDPAAVYHDPDLVPPHGYLAFYFWLRHAYRADALLHVGKHGNLEWLPGKGVGLSAECWPDALLGPLPNIYPFIVNDPGEGAQAKRRTQAVIIDHLMPPLTRAESYGPLRDLERLADEFYDASLLDPRRAEQLRGEILVLLRDNRLDREIGLQLSDDPDSWLPQLDAYLCDLKESQIRDGLHVFGESPSGRLRLDTLLALLRVPRGDGKGANAGLLKSLADDLGLGFDPLACDMGEAWQGARPACLEERGGEPWRTLGDTRERLELLALHWIERCLGGESPPATWRASGEVLRGLCEQVAPTLDACGGAEIDGLLAALEGRFVPAGPSGAPSRGRLDVLPTGRNFFSVDVRNLPTPTAWRIGFQSANLLLERHLQEHGDHLRQLGLSVWGTATMRTGGDDIAQALALLGVRPVWQAGSQRVADFEILPVSLLDRPRVDVTLRVSGFFRDAFANLIRLFDAAVQAVAELDEAEELNPLAARVRLERQRLEAQGTAPAEARRQAGWRIFGAKPGAYGAGVQGAIEERLWETRADLAEVYLNWGGYAYGAADDGTPARERFAQRLERLQAVLHNQDNREHDLLDSNDYYQFQGGMLAAVETLRGAPVASYHGDHSQPDNPRIRTLKEELNRVVRARAVNPKWIAGMKRHGYKGAFELAATVDYLCAFDATSELIDDHQYALLADAYLLDAETREFVRQHNPQALRDMAERLVEAQRRGLWQEPGAYREALENL” the “soluble on expression in E. coli” value was “not soluble”.
In the case of “GHMGAWLASLKQTLGLLPADRKIRVLMLGLDNAGKTSILYRLHLGDVVTTVPTVGVNLETLQYKNISFEVWDLGGQTGVRPYWRCYFSDTDAVIYVVDSTDRDRMGVAKHELYALLDEDELRKSLLLIFANKQDLPDAASEAEIAEQLGVSSIMNRTWTIVKSSSKTGDGLVEGMDWLVERLREQGLGA”, the “soluble on expression in E. coli” value is reported as “soluble”.

— the DeepSol protein solubility set
